Experimental data: patent US8648045B2, “VDAC1 compositions and methods of use thereof for regulating apoptosis” (Ben Gurion University of the Negev Research and Development …, priority 2005, dated 2014)

Key:
mitochondrial bound HK-I = target: T1, mitochondrial bound HK-I (Rattus norvegicus, UniProt P05708); experiment: Detachment of mitochondria-bound HK-I; assay type: biochemical; conditions: peptide N
T1 construct: from tissue; host or cells: rat brain mitochondria
T1 sequence (P05708 1-918): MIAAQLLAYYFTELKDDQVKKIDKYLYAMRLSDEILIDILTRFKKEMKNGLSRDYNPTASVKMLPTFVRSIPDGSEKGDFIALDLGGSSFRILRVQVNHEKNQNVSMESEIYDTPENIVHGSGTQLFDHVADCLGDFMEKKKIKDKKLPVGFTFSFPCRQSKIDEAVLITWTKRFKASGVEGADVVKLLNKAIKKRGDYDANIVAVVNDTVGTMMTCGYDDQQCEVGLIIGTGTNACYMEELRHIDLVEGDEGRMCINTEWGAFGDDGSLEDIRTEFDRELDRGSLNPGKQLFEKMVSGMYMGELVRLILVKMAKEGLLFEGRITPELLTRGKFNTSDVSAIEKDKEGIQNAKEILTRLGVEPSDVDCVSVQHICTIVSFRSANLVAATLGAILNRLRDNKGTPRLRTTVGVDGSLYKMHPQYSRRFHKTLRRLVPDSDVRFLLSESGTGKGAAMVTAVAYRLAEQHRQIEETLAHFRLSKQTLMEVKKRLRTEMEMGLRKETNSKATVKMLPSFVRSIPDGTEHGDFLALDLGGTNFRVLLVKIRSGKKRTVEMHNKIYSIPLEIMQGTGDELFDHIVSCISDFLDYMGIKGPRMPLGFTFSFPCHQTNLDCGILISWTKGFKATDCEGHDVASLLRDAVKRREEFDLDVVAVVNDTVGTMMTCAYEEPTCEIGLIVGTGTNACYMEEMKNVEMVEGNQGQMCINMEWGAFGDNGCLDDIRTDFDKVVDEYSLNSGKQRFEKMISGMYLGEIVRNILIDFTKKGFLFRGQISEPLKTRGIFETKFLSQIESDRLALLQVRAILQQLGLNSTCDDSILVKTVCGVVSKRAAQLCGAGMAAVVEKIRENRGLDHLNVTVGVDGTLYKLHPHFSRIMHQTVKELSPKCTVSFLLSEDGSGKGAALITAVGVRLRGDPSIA

Bcl2 = target: T2, Bcl2 (Homo sapiens, UniProt P10415); conditions: expression of peptide N in cells overexpressing Bcl2-GFP; Abu Hamad et al., 2009; cited from earlier work
T2 construct: GFP; expressed in transfected cells
T2 sequence (P10415 whole entry, species assumed): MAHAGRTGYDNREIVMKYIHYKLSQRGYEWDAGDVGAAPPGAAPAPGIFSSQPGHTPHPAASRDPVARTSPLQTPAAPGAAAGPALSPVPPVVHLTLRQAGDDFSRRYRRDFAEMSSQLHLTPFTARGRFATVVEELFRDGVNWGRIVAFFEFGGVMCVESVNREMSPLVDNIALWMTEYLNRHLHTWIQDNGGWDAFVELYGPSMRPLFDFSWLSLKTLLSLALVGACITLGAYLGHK

E72Q-mVDAC1 = target: T3, E72Q-mVDAC1 (Mus musculus, UniProt Q60932, E72Q); experiment: VDAC channel recording in planar lipid bilayer (PLB); assay type: biochemical; conditions: HK-I 28.6 mU/ml, 5 min; voltage step 0 to −20 mV; 0.5 M NaCl
T3 construct: made in house; host or cells: yeast (purified from mitochondria of yeast expressing mutated mVDAC1)
T3 sequence (Q60932 14-296 E72Q limits assumed): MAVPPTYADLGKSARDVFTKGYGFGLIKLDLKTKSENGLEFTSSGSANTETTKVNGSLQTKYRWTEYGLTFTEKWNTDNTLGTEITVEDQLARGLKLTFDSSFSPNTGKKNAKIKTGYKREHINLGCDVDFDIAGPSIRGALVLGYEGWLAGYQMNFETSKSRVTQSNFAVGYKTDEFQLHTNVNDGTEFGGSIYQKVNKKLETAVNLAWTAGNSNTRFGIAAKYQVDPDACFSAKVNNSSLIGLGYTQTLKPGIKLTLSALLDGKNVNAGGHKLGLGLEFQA
Procedure: (§1) Native and mutated mVDAC1 were extracted with lauryldimethylamine N-oxide (LDAO) from mitochondria isolated from yeast expressing various VDACs, and purified by chromatography on hydroxyapatite followed by carboxymethyl (CM)-cellulose where LDAO was replaced by β-OG (β-octylglucoside).
(§2) Reconstitution of purified VDAC into a planar lipid bilayer (PLB) multi-channel current recording and data analyses were carried as follows. Briefly, PLB were prepared from soybean asolactin dissolved in n-decane (50 mg/ml) in a chamber containing 10 mM HEPES/KOH pH 7.4 and 0.5 or 1M NaCl (cis/trans). Only PLBs with a resistance greater than 100 GΩ were used. Purified VDAC (about 1 ng) was added to the chamber defined as the cis side. After one or a few channels inserted into the PLB, excess protein was removed by perfusion of the cis chamber with 20 volumes of a solution (with the same composition as before perfusion), in order to prevent further protein incorporation. Currents were recorded under voltage-clamp mode using a Bilayer Clamp amplifier (Warner Instrument, USA). The currents were measured with respect to the trans side of the membrane (ground). The currents were low-pass filtered at 1 kHz, using a Bessal filter (Frequency Devices, USA) and digitized on-line using a Digidata 1200 interface board and pCLAMP 6 software (Axon Instruments). Sigma Plot 2000 scientific software was used for data analyses. Experiments were performed at 23-25° C.
(§3) FIG. 1A: Purified recombinant native or E72Q-mutated mVDAC1 was reconstituted into a PLB (planar lipid bilayer) in symmetrical solutions of 0.5 M NaCl. Currents through VDAC1 channel in response to a voltage step from zero to −20 mV were recorded before and 5 min after the addition of HK-I (28.6 mU/ml). The dashed lines indicate the zero-current level. […] FIG. 1C: Cytochrome c release was assayed, using a monoclonal anti-cytochrome c antibody, in the absence or the presence of HK-I (1 U/ml), chymotrypsin-treated HK-I (1 U/ml) or CsA (10 micro M).
(§4) RuR, known to interact with several Ca^2+ binding proteins and to inhibit Ca^2+ transport in mitochondria, inhibited channel activity of native but not of E72Q-mutated VDAC1 (FIG. 5E). Purified recombinant native and E72Q-mVDAC1 variant were reconstituted into a planar lipid bilayer (PLB) and the currents produced in response to voltages stepped from a holding potential of 0 mV to −20 mV were recorded. […] The level of inhibition calculated from […] different experiments was 89.2±2.8% (mean±SD, n=9). In contrast, the channel activity of E72Q-mVDAC1 was not inhibited by RuR in all ten experiments.

[1] = target: T4, recombinant native mVDAC1 (Mus musculus, UniProt Q60932); experiment: as above; assay type: biochemical; conditions: HK-I 28.6 mU/ml, 5 min; voltage step 0 to −20 mV; 0.5 M NaCl
T4 construct: made in house; host or cells: yeast (purified from mitochondria of yeast expressing mVDAC1)
T4 sequence (Q60932 14-296 limits assumed): as the sequence (Q60932 14-296 E72Q limits assumed) above, with Q59E counted along it
Procedure: as §1, §2, §3, §4

[2] = tested on: permeability transition pore (PTP); experiment: PTP opening monitored by Ca2+ accumulation and mitochondrial swelling; assay type: biochemical, rat; conditions: Ca2+ accumulation and swelling of energized mitochondria
Procedure: Ca^2+ uptake by freshly prepared rat liver mitochondria (0.5 mg/ml) was assayed for 1 to 20 minutes at 30° C. in the presence of 225 mM mannitol, 75 mM sucrose, 120 μM CaCl2 (containing 3×10^4 cpm/nmol [^45Ca^2+]), 5 mM HEPES/KOH, 5 mM succinate and 0.1 mM Pi, pH 7.0. Uptake of ^45Ca^2+ was terminated by rapid Millipore filtration followed by a wash with 5 ml of 150 mM KCl.
Ca^2+-induced mitochondria large amplitude swelling was assayed in freshly-prepared mitochondria under the same conditions as for Ca^2+ accumulation, except that the temperature was 24° C. Cyclosporine A (CsA)-sensitive mitochondrial swelling was initiated upon addition of Ca^2+ (0.2 mM) to the sample. Absorbance changes at 520 nm were monitored every 15-20 sec with an Ultraspec 2100 spectrophotometer.
The failure of non-binding species of HK, such as yeast HK, or trypsin- or chymotrypsin-treated HK-I (FIG. 2D) to prevent PTP opening, confirmed the specificity of the HK-I effect, and of the requirement of the HK-I N-terminal region for its interaction with VDAC.
Mitochondrial swelling was assayed in the absence (control ●) or the presence of HK-I (gray ●) and in presence HK-I pre-incubated with peptide LP1. Mitochondrial swelling was assayed as in FIG. 2 in the absence and the presence of peptide LP1 (0.1 mM or 0.3 mM), brain HK-I (0.25 U/ml) or with HK-I pre-incubated for 10 min with LP1. […]

U937 cells = experiment: HK-I over-expression protection against apoptotic cell death in double-transfected cells; assay type: cell-based, human; conditions: staurosporine (STS)
Procedure: U937 cells were transfected with pcDNA3.1-HisA or pcDNA3.1-HisA-HK-I (neomycin resistance; provided by Dr. J. E. Wilson, University of Michigan) by electroporation, and grown in complete RPMI 1640 with neomycin ([…]). After 12 days, the selected cells were transfected with pEGFP, pEGFP-mVDAC1 or pEGFP-E72Q-mVDAC1 and were grown in the presence of neomycin ([…]). The viability of double-transfected cells was analyzed during 48 to 76 hr.
The effect of HK-I over-expression on apoptotic cell death of the GFP-tagged version of native and E72Q-mVDAC1 over-expressing cells was examined.
Since VDAC1 overexpression induces cell death, U937 cells (FIG. 4A, 4B) or T-Rex™ 293 human embryonic kidney cells (FIG. 4B) were first transformed to stably over-express HK-I and then transfected with native, E65Q, E72Q, K73L, D77N, N75A, or G67A mutated mVDAC1-GFP. […] This β-loop includes amino acid residues T64 to about N78.

mitochondria = experiment: Release of cytochrome c from mitochondria; assay type: biochemical, rat; conditions: HK-I 1 U/ml; Western blot
Procedure: Mitochondria (0.5 mg/ml) were incubated with or without 1 U/ml of HK-I for 20 min in a solution containing 150 mM KCl, 25 mM NaHCO3, 5 mM succinate, 1 mM MgCl2, 3 mM KH2PO4, 20 mM HEPES, pH 7.4. Swelling was monitored after the addition of 200 μM Ca^2+. Following complete swelling, the samples were centrifuged and mitochondrial pellets (25 μg) or supernatant (40 μl) were subjected to SDS-PAGE and Western blot analyses using monoclonal anti-cytochrome C antibodies.
as §3
The effects of HK-I are similar to those of the well-known inhibitor of PTP, cyclosporine A (CsA) (FIGS. 1C and 2B).

MAVPPTYADLGKSARDVFTKGYGFGL [Peptide N, 26 amino acid peptide derived from the N-terminal cytosolic segment of VDAC1, amino acids 1-26]
detachment or prevention of HK-1 binding to the mitochondria (mitochondrial bound HK-I): Detachment or prevention of HK-1 binding to the mitochondria was also demonstrated
effect on anti-apoptotic effect of Bcl2 against STS-induced apoptosis (Bcl2): reversed the anti-apoptotic effect of BCl2

B1: HK-I: Hexokinase-I, anti-apoptotic mitochondrial protein that binds to VDAC; purified from rat brain or over-expressed recombinant (protein)
chain: T1 sequence (P05708 1-918)
effect of HK-I on VDAC1 channel (E72Q-mVDAC1): able to close native VDAC1 but not mutated E72Q-VDAC1
effect of HK-I on VDAC1 channel [1]: induces its closure
prevention of PTP opening [2]: inhibited PTP opening
protection by HK-I over-expression against STS-induced apoptosis (U937 cells): protects against apoptosis induced by STS
release of cytochrome c from mitochondria (mitochondria): prevented the release of cytochrome c from mitochondria
